pKd: −log10 of the molar value.

Drawing on PMC6771230, this text covers Kd for one substance.

The test system of the data set is YB-1. Nature of the data set: EMSA. To be noted: serial-diluted protein; RNA-EMSA in Thermo Scientific kit binding buffer, 6% polyacrylamide gel; salt, pH and temperature not stated. Background: Mobility shift assays separate free from complexed probe on a gel.

As to H19 RNA fragment 661-745 (85 nt), the pKd was 5.13.

Usually pKd stands for −log10 of the Kd, conventionally taken in molar units.
